Target: trimeric SARS-CoV-2 ectodomain (S 6P trimer, residues 16-1206) (SARS-CoV-2) (UniProt P0DTC2)
Test: cryo-EM structure

trimeric SARS-CoV-2 ectodomain (S 6P trimer, residues 16-1206) (from UniProt P0DTC2 16-1206)
stoichiometry N: 3
